Km data for 7 proteins are collected here from paper PMC5645249.

Substrate in this data set: O=[N+]([O-])O
As to the kind of experiment: nitrate reduction with reduced Fd, Michaelis-Menten fit. The following applies: saturating reduced Synechocystis sp. PCC 6803 ferredoxin as electron donor. The class given is biochemical, Synechococcus elongatus.

Positions count from the first letter of the chain named. Names may count otherwise.

B1: Synechococcus sp. PCC 7942 NR (ferredoxin-dependent nitrate reductase) (Synechococcus elongatus PCC 7942 = FACHB-805; K215R) (protein)
chain: MIDTAKTLCPYCGVGCGLEAVPPAQPGRATVRDREGTPIWQIRGDRQHPSSQGMVCVKGATVAESVSKSRLKYPMFRASLDDPFTEISWDEALDRLCDRIQQTQADYGKDGICFYGSGQFQTEDYYIAQKLVKGCLGTNNFDTNSRLCMSSAVSAYSLCLGSDGPPACYEDLDLADCLLIVGSNTAECHPILFNRYRKRHRQGGTNLIVVDPRCTPTAEVADLHLALKPGSDVALLNGLGWLLYQMGYVKKDFIANQTEGFEDWLAIIEDYPPQRTAELTGLAVAELVRAADLIASAQRWLSLWSMGVNQSIQGTAKATSLINLHLLTRQIGLPGCGPFSLTGQPNAMGGRETGGLAHLLPGYRKVIDPQHRADVETIWGLPMGSISPQPGRTAWQMIEGLEQGAVGFLWVAATNPAVSLPDVKRAQAALKRSPFTVLQDAYHPTETTTYAHLLLPAAQWSEKTGTMTNSERRVTLCQAFRQPPGEARADWQIFAEVGRRLGFAFDYTDAAAVFAEYVQVTAGRLCDLSGLSHELLAQAGPQQWPFPAGAEPTTESKRLYTKHHFAYADGRARFQPFHHLGVAEPPDDRYPLVLTVGRLYGHWHTQTRTGRIDKINKLHPSAFVEIHPRDADRYNISEGQAVVIRSRRGEGCFPAKVTTAISPGVLFVPMHWGALWGDRTEANALTHPAACPISGEPELKACAVQIEAASSTFTI
The term Km denotes the concentration of substrate that gives half-maximal velocity. Turning to B1, the Km was found to be 9.6 ± 1.0 µM.

B2: Synechococcus sp. PCC 7942 NR (ferredoxin-dependent nitrate reductase) (Synechococcus elongatus PCC 7942 = FACHB-805; E233Q) (protein)
chain: B1 chain with R201K, E219Q
As for B2, the Km is 4.5 ± 0.4 µM.

B3: Synechococcus sp. PCC 7942 NR (ferredoxin-dependent nitrate reductase) (Synechococcus elongatus PCC 7942 = FACHB-805; K628R) (protein)
chain: B1 chain with R201K, K614R
Turning to B3, the Michaelis-Menten constant (Km) is 4.2 ± 0.5 µM.

B4: Synechococcus sp. PCC 7942 NR (ferredoxin-dependent nitrate reductase) (Synechococcus elongatus PCC 7942 = FACHB-805; R57K) (protein)
chain: B1 chain with R43K, R201K
Take B4: the Michaelis constant (Km) amounted to 8.1 ± 0.7 µM.

B5: Synechococcus sp. PCC 7942 NR (ferredoxin-dependent nitrate reductase) (Synechococcus elongatus PCC 7942 = FACHB-805; R60Q) (protein)
chain: B1 chain with R46Q, R201K
Regarding B5, the Michaelis constant (Km) stood at 55 ± 20 µM.

B6: Synechococcus sp. PCC 7942 NR (ferredoxin-dependent nitrate reductase) (Synechococcus elongatus PCC 7942 = FACHB-805; R211Q) (protein)
chain: B1 chain with R197Q, R201K
As for B6, the Km turned out to be 7.0 ± 0.7 µM.

B7: Synechococcus sp. PCC 7942 NR (ferredoxin-dependent nitrate reductase) (Synechococcus elongatus PCC 7942 = FACHB-805; R60K) (protein)
chain: B1 chain with R46K, R201K
Consider B7, for which the Michaelis constant (Km) is listed as 6.6 ± 1.0 µM.
